This note sets out measurements from US20160264960A1 (Chugai, published 2016).

Test [1] concerns the target T1, human plexin A1 protein sema domain (from glutamic acid at position 28 to serine at position 514) tagged at … (human, UniProt Q9UIW2 28-514).
T1 construct: also called human plexin A1 sema domain
T1 sequence: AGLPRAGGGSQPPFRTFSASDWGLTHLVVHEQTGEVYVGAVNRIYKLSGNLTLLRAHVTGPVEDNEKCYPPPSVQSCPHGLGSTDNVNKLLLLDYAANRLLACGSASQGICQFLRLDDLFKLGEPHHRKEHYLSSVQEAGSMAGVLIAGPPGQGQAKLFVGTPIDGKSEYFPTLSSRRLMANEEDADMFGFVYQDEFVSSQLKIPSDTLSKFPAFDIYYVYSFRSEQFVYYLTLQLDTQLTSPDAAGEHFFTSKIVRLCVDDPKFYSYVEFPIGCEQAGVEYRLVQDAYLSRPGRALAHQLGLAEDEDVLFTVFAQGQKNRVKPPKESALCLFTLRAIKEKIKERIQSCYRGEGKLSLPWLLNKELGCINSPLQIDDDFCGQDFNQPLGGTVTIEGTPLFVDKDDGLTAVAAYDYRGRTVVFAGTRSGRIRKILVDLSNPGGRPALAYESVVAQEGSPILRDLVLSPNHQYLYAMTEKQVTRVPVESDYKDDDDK
Description: SPR, Biacore T200; antibody held by Protein A/G on CM4 chip, sema domain as analyte. As for the experimental part: (§1) Each antibody obtained in the paragraph (10-1) was evaluated for its binding activity against the antigen by surface plasmon resonance (SPR) analysis.
(§2) In the SPR analysis, the antibody was analyzed using Biacore T200 (GE Healthcare Japan Corp.). The anti-human plexin A1 antibody was immobilized onto the surface of Sensor Chip CM4 using Recombinant Protein A/G (Thermo Fisher Scientific Inc.) and Amine Coupling Kit (GE Healthcare Japan Corp.). The antigen used was a human plexin A1 protein sema domain (from glutamic acid at position 28 to serine at position 514) tagged at the C terminus of the protein with FLAG tag. The antigen was prepared as follows: an expression vector carrying a cDNA corresponding to the human plexin A1 sema domain was transferred to FreeStyle 293 cells. After culture, the obtained culture solution was passed through an anti-FLAG-M2 antibody-immobilized affinity column. A fraction eluted with the FALG peptide was purified by gel filtration. The obtained antigen was serially diluted with 20 mM ACES, 150 mM NaCl, 0.05% polysorbate 20, and 1.2 mM CaCl₂ (pH 7.4) and added to the sensor chip at a flow rate of 30 μL/min. In this assay system, the dissociation constant (KD) between the human plexin A1 protein and the anti-human plexin A1 antibody was calculated using data analysis software (BIA T200 Evaluation software ver. 2).

Test [2] addresses T1, human plexin A1 protein sema domain …. Description: SPR, Biacore T200; KD against parent antibody hPANLB2-3_342. As for the experimental part: as §1, §2
In the next test the target is T2, mouse IgA (mouse, UniProt P01878 114-344).
T2 sequence (looked up): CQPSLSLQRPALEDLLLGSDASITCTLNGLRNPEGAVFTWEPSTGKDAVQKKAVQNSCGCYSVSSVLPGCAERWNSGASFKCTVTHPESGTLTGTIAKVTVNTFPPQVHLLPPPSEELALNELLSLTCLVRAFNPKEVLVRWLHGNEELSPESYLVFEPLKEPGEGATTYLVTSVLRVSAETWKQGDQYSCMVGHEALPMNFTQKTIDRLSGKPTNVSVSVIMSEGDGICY
As to the kind of experiment: biolayer interferometry (Octet RED384), antibody on Protein G biosensor, mouse IgA in solution; antigen concentration not given [c]. As to the method:
(§3) Each antibody (mIANH-2_27 and mIANH-3_79) obtained in the paragraph (4-1) or a PF1 antibody was evaluated for its binding activity against mouse IgA or soluble human IL-6R using Octet RED384 (forteBIO). The binding evaluation was conducted using HBS-EP+Buffer (GE Healthcare Japan Corp.) as a buffer.
(§4) After binding of the antibody to Protein G Biosensors (forteBIO), mouse IgA or soluble human IL-6R was allowed to interact with the antibody on the biosensor through contact therebetween for 120 seconds, and subsequently contacted with the buffer for 120 seconds to measure the antibody-antigen interaction. Then, the biosensor was regenerated through contact with 10 mmol/L glycine-HCl (pH 1.5). The measurement was conducted at 30° C.

Test [3] concerns the target T3, soluble human IL-6R (human, UniProt P08887 20-357).
T3 construct: Analyte in the Octet experiments; also called hIL-6R; soluble hIL-6R
T3 sequence: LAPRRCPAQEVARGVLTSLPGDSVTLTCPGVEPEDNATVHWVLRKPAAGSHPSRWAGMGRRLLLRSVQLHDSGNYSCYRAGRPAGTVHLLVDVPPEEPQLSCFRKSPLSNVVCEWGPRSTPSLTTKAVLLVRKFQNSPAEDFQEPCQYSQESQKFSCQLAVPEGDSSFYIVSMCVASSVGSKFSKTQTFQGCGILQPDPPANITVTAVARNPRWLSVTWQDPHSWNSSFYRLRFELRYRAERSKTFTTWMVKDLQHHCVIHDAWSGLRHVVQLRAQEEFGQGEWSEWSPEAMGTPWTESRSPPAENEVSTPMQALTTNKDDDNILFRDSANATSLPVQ
Description: biolayer interferometry (Octet RED384), antibody on Protein G biosensor, soluble human IL-6R in solution, 120 s association and 120 s dissociation [d]. As to the method: (§5) Each antibody (PANH-2_52, PANH-2_68, and PANH-3_10) obtained in the paragraph (4-1) or an anti-human IL-6R antibody PF1 antibody was evaluated for its binding activity against soluble human plexin A1 and soluble human IL-6R using Octet RED384 (forteBIO). The binding evaluation was conducted using HBS-EP+Buffer (GE Healthcare Japan Corp.) as a buffer.
(§6) After binding of the antibody to Protein G Biosensors (forteBIO), soluble human plexin A1 or soluble human IL-6R was allowed to interact with the antibody on the biosensor through contact therebetween for 120 seconds, and subsequently contacted with the buffer for 120 seconds to measure the antibody-antigen interaction. Then, the biosensor was regenerated through contact with 10 mmol/L glycine-HCl (pH 1.5). The measurement was conducted at 30° C.

For test [4], the target named is T4, soluble human plexin A1 (human, UniProt Q9UIW2 27-1244).
T4 construct: also called hPlexin A1; human Plexin A1 extracellular region
Description: biolayer interferometry (Octet RED384), antibody on Protein G biosensor, soluble human plexin A1 in solution; antigen concentration not given [d]. As for the experimental part:
as §5, §6

Test [5] has as its target T3, soluble human IL-6R. Description: biolayer interferometry (Octet RED384), antibody on Protein G biosensor, soluble human IL-6R in solution; antigen concentration not given [a]. As to the method:
as §3, §4

In test [6] the target is T3, soluble human IL-6R. As to the kind of experiment: biolayer interferometry (Octet RED384), antibody on Protein G biosensor, soluble human IL-6R in solution; antigen concentration not given [b]. As for the experimental part:
as §3, §4

Test [7] concerns the target T3, soluble human IL-6R. As to the kind of experiment: biolayer interferometry (Octet RED384), antibody on Protein G biosensor, soluble human IL-6R in solution; antigen concentration not given [c]. As to the method: as §5, §6
Test [8] has as its target T4, soluble human plexin A1. Description: biolayer interferometry (Octet RED384), antibody on Protein G biosensor, soluble human plexin A1 in solution, 120 s association and 120 s dissociation [c]. As to the method:
as §5, §6

The target in test [9] is T4, soluble human plexin A1. Description: biolayer interferometry (Octet RED384), antibody on Protein G biosensor, soluble human plexin A1 in solution, 120 s association and 120 s dissociation [a]. As to the method:
as §5, §6

The target in test [10] is T3, soluble human IL-6R. As to the kind of experiment: biolayer interferometry (Octet RED384), antibody on Protein G biosensor, soluble human IL-6R in solution; antigen concentration not given [a]. As to the method:
as §5, §6
This is another data set of the same source.

Test [11] deals with T3, soluble human IL-6R. Description: biolayer interferometry (Octet RED384), antibody on Protein G biosensor, soluble human IL-6R in solution; antigen concentration not given [b]. As for the experimental part:
as §5, §6
The source holds these as a separate data set.

Test [12] has as its target T4, soluble human plexin A1. Description: biolayer interferometry (Octet RED384), antibody on Protein G biosensor, soluble human plexin A1 in solution, 120 s association and 120 s dissociation [b]. As to the method:
as §5, §6

T4 sequence (Q9UIW2 other isoform, or with tags, fused parts or gaps): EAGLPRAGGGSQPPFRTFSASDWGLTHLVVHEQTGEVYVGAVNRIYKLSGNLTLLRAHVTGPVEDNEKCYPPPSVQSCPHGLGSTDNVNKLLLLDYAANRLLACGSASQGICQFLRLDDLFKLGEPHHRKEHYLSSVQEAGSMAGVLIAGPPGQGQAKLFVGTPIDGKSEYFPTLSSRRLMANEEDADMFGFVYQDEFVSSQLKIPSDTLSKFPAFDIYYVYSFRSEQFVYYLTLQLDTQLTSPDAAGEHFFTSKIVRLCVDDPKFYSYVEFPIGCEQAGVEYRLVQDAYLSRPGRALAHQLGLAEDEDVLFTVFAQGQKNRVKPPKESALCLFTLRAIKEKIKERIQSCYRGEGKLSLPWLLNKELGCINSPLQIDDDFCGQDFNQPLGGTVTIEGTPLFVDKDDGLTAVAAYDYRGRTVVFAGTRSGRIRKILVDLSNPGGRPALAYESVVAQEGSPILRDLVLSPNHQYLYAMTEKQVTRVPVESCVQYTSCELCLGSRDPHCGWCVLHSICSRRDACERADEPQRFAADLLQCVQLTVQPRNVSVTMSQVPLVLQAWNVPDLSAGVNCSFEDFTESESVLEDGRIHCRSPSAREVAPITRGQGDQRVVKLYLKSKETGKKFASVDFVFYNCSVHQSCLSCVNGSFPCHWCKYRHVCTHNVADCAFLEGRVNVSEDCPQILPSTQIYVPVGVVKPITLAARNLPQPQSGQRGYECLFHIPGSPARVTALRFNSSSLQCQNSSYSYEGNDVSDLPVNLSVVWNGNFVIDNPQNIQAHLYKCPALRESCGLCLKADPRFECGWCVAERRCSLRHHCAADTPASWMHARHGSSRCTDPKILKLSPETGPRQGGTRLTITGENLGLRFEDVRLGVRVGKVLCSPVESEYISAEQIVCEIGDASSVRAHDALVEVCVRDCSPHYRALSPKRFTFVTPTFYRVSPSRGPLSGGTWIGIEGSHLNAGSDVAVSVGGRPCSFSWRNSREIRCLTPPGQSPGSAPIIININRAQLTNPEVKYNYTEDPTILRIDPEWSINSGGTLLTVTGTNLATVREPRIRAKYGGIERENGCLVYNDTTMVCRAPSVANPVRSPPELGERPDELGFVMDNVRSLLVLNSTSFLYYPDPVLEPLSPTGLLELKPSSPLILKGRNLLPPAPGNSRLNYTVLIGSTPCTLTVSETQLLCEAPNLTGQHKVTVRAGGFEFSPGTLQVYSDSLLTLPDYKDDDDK

B1: PLR2H342#009 (antibody, human IgG1, lambda, V domains shown)
VH: EVQLVQSGAEVKKPGASVKVSCKASGYTFTSYGISWVRQAPGQGLEWMGWISAYNGNTNYAQKLQGRVTMTTDTSTSTAYMELRSLRSDDTAVYYCARHAGYYYGMDVWGKGTMVTVSS
VL: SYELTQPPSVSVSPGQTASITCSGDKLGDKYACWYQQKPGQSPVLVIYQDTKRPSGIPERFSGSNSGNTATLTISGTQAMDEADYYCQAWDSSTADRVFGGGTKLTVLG
notes: IgG from the 342H-NL library
The molecule B1 returned a dissociation constant (Kd) in [1] of 1.82 nM. For the same molecule, the “Relative KD improvement” value in test [2] turned out to be 19 fold.

B2: PF1 (antibody, human IgG1, kappa, V domains shown)
VH: QVQLQESGPGLVKPSETLSLTCAVSGYSISDDHAWSWVRQPPGEGLEWIGYISYSGITNYNPSLKGRVTISRDTSKNQFSLKLSSVTAADTAAYYCARVLARITAMDYWGEGTLVTVSS
VL: DIQMTQSPSSLSASVGDSVTITCQASQDISSYLNWYQQKPGKAPELLIYYGSELHSGVPSRFSGSGSGTDFTFTISSLEAEDAATYYCGQGNRLPYTFGQGTKVEIER
notes: also called PF1 antibody; anti-IL-6R antibody PF1 antibody
In the case of B2, the binding result with mouse IgA was “no binding”; in the test with soluble human IL-6R [3], “binds”; in the test with soluble human plexin A1 [4], “no binding”.

B3: mIANH-2_27 (antibody, human IgG1, kappa, V domains shown)
VH: EVQLVQSGAEVKKPGASVKVSCKASGYTFTGYYIHWVRQAPGQGLEWMGRINPNSGGTNYAQKFQGRVTMTRDTSISTAYMQLSRLRSDDTAVYYCARDNSGWGGFDAFDIWGQGTMVTVSS
VL: DIQMTQSPSSLSASVGDSVTITCQASQDISSYLNWYQQKPGKAPELLIYYGSELHSGVPSRFSGSGSGTDFTFTISSLEAEDAATYYCGQGNRLPYTFGQGTKVEIER
notes: IgG with the PF1 L chain
On to B3, for which, in the test with soluble human IL-6R [5], the binding result is given as “no binding”.

B4: mIANH-3_79 (antibody, human IgG1, kappa, V domains shown)
VH: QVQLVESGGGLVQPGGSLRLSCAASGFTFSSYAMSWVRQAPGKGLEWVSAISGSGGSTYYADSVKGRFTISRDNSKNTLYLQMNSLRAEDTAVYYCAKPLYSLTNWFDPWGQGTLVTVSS
VL: DIQMTQSPSSLSASVGDSVTITCQASQDISSYLNWYQQKPGKAPELLIYYGSELHSGVPSRFSGSGSGTDFTFTISSLEAEDAATYYCGQGNRLPYTFGQGTKVEIER
notes: IgG with the PF1 L chain
On to B4, for which, in the test with soluble human IL-6R [6], the binding result is listed as “no binding”.

B5: PANH-3_10 (antibody, human IgG1, kappa, V domains shown)
VH: QVQLQESGPGLVKPSETLSLTCTVSGGSISSSSYYWGWIRQPPGKGLEWIGSIYYSGSTYYNPSLKSRVTISVDTSKNQFSLKLSSVTAADTAVYYCARDPVQLEHSRYYYYYGMDVWGQGTTVTVSS
VL: DIQMTQSPSSLSASVGDSVTITCQASQDISSYLNWYQQKPGKAPELLIYYGSELHSGVPSRFSGSGSGTDFTFTISSLEAEDAATYYCGQGNRLPYTFGQGTKVEIER
notes: IgG with the PF1 L chain
Take B5: the binding result with soluble human IL-6R [7] was “no binding”; in the test with soluble human plexin A1 [8], “binds”.

B6: PANH-2_52 (antibody, human IgG1, kappa, V domains shown)
VH: EVQLVQSGGGVVQPGRSLRLSCAASGFTFSSYAMHWVRQAPGKGLEWVAVISYDGSNKYYADSVKGRFTISRDNSKNTLYLQMNSLRAEDTAVYYCARPPMEWLFWDAFDIWGQGTMVTVSS
VL: DIQMTQSPSSLSASVGDSVTITCQASQDISSYLNWYQQKPGKAPELLIYYGSELHSGVPSRFSGSGSGTDFTFTISSLEAEDAATYYCGQGNRLPYTFGQGTKVEIER
notes: IgG with the PF1 L chain
B6: the binding result with soluble human plexin A1 [9] is on record as “binds”; with soluble human IL-6R [10] it was “no binding”.

B7: PANH-2_68 (antibody, human IgG1, kappa, V domains shown)
VH: QVQLVQSGAEVKKPGASVKVSCKASGYTFTSYGISWVRQAPGQGLEWMGWISAYNGNTNYAQKLQGRVTMTTDTSTSTAYMELRSLRSDDTAVYYCARAHTKDIWGQGTMVTVSS
VL: DIQMTQSPSSLSASVGDSVTITCQASQDISSYLNWYQQKPGKAPELLIYYGSELHSGVPSRFSGSGSGTDFTFTISSLEAEDAATYYCGQGNRLPYTFGQGTKVEIER
notes: IgG with the PF1 L chain
With B7, the binding result is “no binding” with soluble human IL-6R [11] and “binds” with soluble human plexin A1 [12].
